Article PMC11078986, “Structural basis and synergism of ATP and Na^+ activation in bacterial K^+ uptake system KtrAB” (Nature Communications, 2024)

B1: KtrA from Bacillus subtilis (BsKtrA) (natural protein)
chain: MGRIKNKQFAVIGLGRFGGSICKELHRMGHEVLAVDINEEKVNAYASYATHAVIANATEENELLSLGIRNFEYVIVAIGANIQASTLTTLLLKELDIPNIWVKAQNYYHHKVLEKIGADRIIHPEKDMGVKIAQSLSDENVLNYIDLSDEYSIVELLATRKLDSKSIIDLNVRAKYGCTILAIKHHGDICLSPAPEDIIREQDCLVIMGHKKDIKRFENEGM
notes: KtrA, regulatory RCK subunit of the K+ uptake system KtrAB, Bacillus subtilis; tag-less; Octameric ring (tetramer of homodimers); Used with ATP, with ADP or as apo protein; also called ATP-BsKtrA; ADP-BsKtrA; source: E. coli BL21(DE3), purified (anion exchange, N6-hexyl-ATP agarose, dialysis, SEC)
B2: KtrB from Bacillus subtilis (BsKtrB) (natural protein)
chain: MTLQKDKVIKWVRFTPPQVLAIGFFLTIIIGAVLLMLPISTTKPLSWIDALFTAASATTVTGLAVVDTGTQFTVFGQTVIMGLIQIGGLGFMTFAVLIVMILGKKIGLKERMLVQEALNQPTIGGVIGLVKVLFLFSISIELIAALILSIRLVPQYGWSSGLFASLFHAISAFNNAGFSLWPDNLMSYVGDPTVNLVITFLFITGGIGFTVLFDVMKNRRFKTFSLHTKLMLTGTLMLNAIAMLTVFILEYSNPGTLGHLHIVDKLWASYFQAVTPRTAGFNSLDFGSMREGTIVFTLLLMFIGAGSASTASGIKLTTFIVILTSVIAYLRGKKETVIFRRSIKYPIIIKALAVSVTSLFIVFLGIFALTITEQAPFLQIVFETFSAFGTVGLTMGLTPELTTAGKCIIIVIMFIGRIGPLTFVFSFAKTEQSNIRYPDGEVFTG
notes: KtrB, transmembrane K+ permeation subunit of the K+ uptake system KtrAB, Bacillus subtilis; Membrane protein dimer in detergent (DDM, or 6-cyclohexyl-1-hexyl-beta-D-maltoside for cryo-EM); source: E. coli C43 (DE3), purified (DDM extraction, Ni-NTA, TEV cleavage, second Ni-NTA, SEC); not shown: His tag, N-terminal, cleaved

Experiments:
BsKtrA = target: T1, BsKtrA (Bacillus subtilis, UniProt O32080); test: cryo-EM structure of ADP-BsKtrAB at […] Å (Structure III); type: binding
T1 construct: gene ktrA; tag-less BsKtrA (octamer) in the BsKtrAB complex; with BsKtrB
T1 sequence (O32080 1-222): B1 chain
T1 sequence (O32081 1-445 partner): B2 chain

[1] = target: B2; test: cryo-EM structure; ATP-BsKtrAB (Structures I, II, IIa, IIb); BsKtrA and BsKtrB mixed 2:1 with 1 mM ATP, complex taken from SEC; Cryo-EM Buffer (20 mM Tris-HCl pH 8.0, 70 mM NaCl, 30 mM KCl, 0.75 mM 6-cyclohexyl-1-hexyl-beta-D-maltoside) with 1 mM ATP and 2 mM MgCl2, or 1 mM ATP, 2 mM EDTA and 1 mM EGTA; KtrB2A8B2 assembly; details: both partners purified
[2] = target: the molecule itself; test: as above

| binding result [1] | Molecule | cryo-EM structure of ADP-BsKtrAB at 2.8 Å (Structure III) (BsKtrA) | stoichiometry N [2] |
| --- | --- | --- | --- |
|  | Nc1ncnc2c1ncn2[C@@H]1O[C@H](COP(=O)(O)OP(=O)(O)O)[C@@H](O)[C@H]1O [ADP] | ATP and ADP share the same binding site located at the intra-dimer interface of KtrA RCK_N subdomains |  |
| binds | B1 |  | 8 |
|  | B2 |  | 2 |
